From patent US12152088B2, “Co-assembly peptides, nanostructures, and methods of making and using the same” (University of Florida Research Foundation, Incorporated, priority 2016, dated 2024)

Key:
Format in all cases: physicochemical
[1] = Circular dichroism (secondary structure); details: peptide incubated alone; CD maxima at 220 nm, minima at 200 nm
Experimental: Circular Dichroism. Circular Dichroism was performed on an AVIV 202 spectrometer. Peptides were prepared in 1× PBS at 500 μM, unless stated otherwise. Samples were run 3 times, averaged, and converted to mean residue ellipticity. All data reported was for dynode values <500 V.

[2] = Nanofiber sedimentation, fusion protein integration into CATCH nanofibers; details: 500 μM CATCH(4/4) or CATCH(6/6) nanofibers
Experimental: Briefly, 500 μM CATCH(4/4) nanofiber sedimentation in the presence of (FIG. 42A) ThT, (FIG. 42B) CATCH(6-)GFP, (FIG. 42C) mCATCH(6-)GFP. […] 500 μM CATCH(6/6) nanofiber sedimentation in the presence of (FIG. 42E) ThT, (FIG. 42F) CATCH(6-) GFP, (FIG. 42G) mCATCH(6-)GFP.

[3] = Macroscopic hydrogel formation; details: aqueous buffered solutions of 12 mM
Experimental: Macroscopic Hydrogel Formation. A 12 mM stock solution of CATCH(−) was prepared by dissolving dry peptide in 1× PBS and adjusting the pH to ˜7.6 with ammonium bicarbonate (Fisher). A 12 mM stock solution of CATCH(+) was prepared by dissolving dry peptide in 1×PBS and adjusting the pH to ˜7.2 with hydrochloric acid (0.5 N Fisher). CATCH peptide stock solutions were combined at a 1:1 (v/v) ratio in a 0.2 mL glass vial (Thermo), and the vial was gently swirled for 2 min until the hydrogel formed. The hydrogel was stained with red food coloring to aid visualization. Hydrogel images were recorded using a digital still camera.

[4] = Protein incorporation / retention in macroscopic hydrogels
Experimental: Protein Incorporation into Macroscopic Hydrogels. Hydrogels were prepared as described above, except 1.5 μM CATCH(−)GFP or mCATCH(−)GFP was added to the 12 mM CATCH(−) solution. Immediately after hydrogel formation, fluorescence was visualized by placing the glass vials on a SafeImager 2.0 transilluminator (Invitrogen) and recording images with a digital still camera. 800 μL of PBS was then carefully overlaid on top of hydrogel. The samples were then incubated for 48 hours to evaluate the protein incorporation within the hydrogel. At various time points, fluorescence in the buffer supernatant was visualized by placing the glass vials on a SafeImager 2.0 transilluminator (Invitrogen) and recording images with a digital still camera. At the end-point, buffer supernatant was carefully removed by decanting and fluorescence was visualized by placing the glass vials on a SafeImager 2.0 transilluminator (Invitrogen) and recording images with a digital still camera.

Substance | secondary structure [1] | integration into CATCH nanofibers [2] | flow behaviour / hydrogel formation [3] | hydrogel fluorescence after incubation ([4]; CATCH hydrogels under volumetric excess of 1× PBS for 48 h) | GFP in the buffer layer over hydrogels ([4]; excess buffer, up to 48 h)
Ac-EQEFEFEFEQE-Am (Ac-EQEFEFEFEQE-NH2) [CATCH(−)] | predominantly random coil | integrates into both CATCH(6/6) and CATCH(4/4) nanofibers | free flowing |  | 
Ac-QQKFKFKFKQQ-Am (Ac-QQKFKFKFKQQ-NH2) [CATCH(+)] | predominantly random coil |  | free flowing |  | 
CATCH(−)GFP: recombinant fusion of CATCH(−) and superfolder green fluorescent protein (GFP) |  |  |  | retained their fluorescence | no GFP was detected
